According to patent US10005846 (LIFEARC, dated 2018):

Assays:
rat TG2 = biological target: T1, rat TG2 (rat, UniProt Q9WVJ6 1-686, limits assumed); test: cell-based or functional assay
T1 sequence: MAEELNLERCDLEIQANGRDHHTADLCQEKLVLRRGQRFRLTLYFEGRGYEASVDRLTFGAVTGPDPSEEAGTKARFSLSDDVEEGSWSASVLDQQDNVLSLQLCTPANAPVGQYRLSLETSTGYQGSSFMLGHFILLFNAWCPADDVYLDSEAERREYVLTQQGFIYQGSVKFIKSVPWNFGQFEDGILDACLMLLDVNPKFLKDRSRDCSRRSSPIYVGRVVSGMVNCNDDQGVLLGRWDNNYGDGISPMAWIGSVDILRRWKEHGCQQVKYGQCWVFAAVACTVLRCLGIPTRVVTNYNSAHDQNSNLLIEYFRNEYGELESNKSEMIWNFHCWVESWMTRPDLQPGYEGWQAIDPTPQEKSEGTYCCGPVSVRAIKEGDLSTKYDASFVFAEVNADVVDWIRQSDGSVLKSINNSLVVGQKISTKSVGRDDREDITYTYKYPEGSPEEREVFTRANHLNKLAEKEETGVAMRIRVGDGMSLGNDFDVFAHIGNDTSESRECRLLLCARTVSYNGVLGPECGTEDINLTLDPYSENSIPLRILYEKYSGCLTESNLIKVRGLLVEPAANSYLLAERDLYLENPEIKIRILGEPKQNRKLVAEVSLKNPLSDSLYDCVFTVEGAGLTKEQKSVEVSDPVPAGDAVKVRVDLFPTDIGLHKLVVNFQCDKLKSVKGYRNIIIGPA

[1] = biological target: T2, human transglutaminase type 2 (TG2) (human, UniProt P21980 1-687); test: cell-based or functional assay
T2 sequence: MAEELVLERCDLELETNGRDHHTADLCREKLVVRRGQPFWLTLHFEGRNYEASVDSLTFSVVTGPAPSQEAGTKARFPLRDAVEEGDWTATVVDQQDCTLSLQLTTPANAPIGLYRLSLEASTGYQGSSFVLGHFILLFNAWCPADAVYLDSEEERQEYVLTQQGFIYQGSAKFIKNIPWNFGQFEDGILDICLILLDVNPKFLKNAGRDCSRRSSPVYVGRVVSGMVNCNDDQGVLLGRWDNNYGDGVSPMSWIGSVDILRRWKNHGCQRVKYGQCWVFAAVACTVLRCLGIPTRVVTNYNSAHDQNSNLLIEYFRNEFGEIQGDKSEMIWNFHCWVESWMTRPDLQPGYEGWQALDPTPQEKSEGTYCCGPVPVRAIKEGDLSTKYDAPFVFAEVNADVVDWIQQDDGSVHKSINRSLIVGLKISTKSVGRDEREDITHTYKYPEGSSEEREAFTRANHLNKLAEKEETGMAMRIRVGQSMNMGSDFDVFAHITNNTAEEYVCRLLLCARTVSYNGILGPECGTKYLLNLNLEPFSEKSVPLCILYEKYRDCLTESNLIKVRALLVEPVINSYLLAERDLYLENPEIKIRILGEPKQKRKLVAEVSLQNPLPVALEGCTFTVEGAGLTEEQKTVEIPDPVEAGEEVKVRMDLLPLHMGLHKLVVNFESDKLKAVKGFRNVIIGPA

cynomolgus monkey TG2 = biological target: T3, cynomolgus monkey TG2 (cynomolgus monkey, UniProt A0A2K5VXI8 1-687); test: ELISA on immobilised cynomolgus monkey TG2; r2 0.9992; EC50 95% confidence range 0.3040 to 0.3536 [panel A]
T3 construct: Bought recombinant protein; also called cynomogulus monkey TG2; cyano TG2
T3 sequence: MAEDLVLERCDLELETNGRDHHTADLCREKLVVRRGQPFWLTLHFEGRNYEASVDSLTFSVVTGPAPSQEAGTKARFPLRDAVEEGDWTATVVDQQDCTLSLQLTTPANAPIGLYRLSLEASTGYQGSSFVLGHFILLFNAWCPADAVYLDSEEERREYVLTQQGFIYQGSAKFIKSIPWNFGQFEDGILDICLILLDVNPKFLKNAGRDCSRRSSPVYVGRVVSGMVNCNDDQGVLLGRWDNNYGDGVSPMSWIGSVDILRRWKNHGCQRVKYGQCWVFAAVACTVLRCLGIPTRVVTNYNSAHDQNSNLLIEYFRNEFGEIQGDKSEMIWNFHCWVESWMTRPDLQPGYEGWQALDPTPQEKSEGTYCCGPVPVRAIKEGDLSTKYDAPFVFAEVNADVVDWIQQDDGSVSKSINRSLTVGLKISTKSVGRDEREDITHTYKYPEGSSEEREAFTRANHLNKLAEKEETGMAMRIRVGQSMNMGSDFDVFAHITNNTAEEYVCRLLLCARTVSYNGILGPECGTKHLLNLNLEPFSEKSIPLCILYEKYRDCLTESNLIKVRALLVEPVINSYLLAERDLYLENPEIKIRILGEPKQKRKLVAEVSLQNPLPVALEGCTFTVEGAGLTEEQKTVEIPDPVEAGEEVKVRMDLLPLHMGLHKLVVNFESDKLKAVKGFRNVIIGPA
Description: Antibody binding to human and cynomolgus monkey TG2 was determined in an ELISA assay. Clear polystyrene "Maxisorp" 96-well plates (Nunc) were coated with 50 ng purified human or cynomogulus monkey TG2 in 50 µl 0.05 M carbonate-bicarbonate buffer pH 9.6 at 4° C. overnight. Control wells were coated with 50 µl 100 µg/ml bovine serum albumin (BSA). Plates were washed 3× with 300 µl phosphate-buffered saline pH7.4 (PBS) containing 0.1% Tween 20 (PBST) and blocked with 300 µl 3% w/v Marvel skimmed milk in PBS for 1 hour at room temperature. After 3× wash with PBST, 50 µl protein-A purified chimeric or humanised anti-TG2 antibodies or human IgG1 kappa […] control antibody or CUB7402 (Abcam) were serially diluted 4-fold from a top concentration of 50 nM in PBS, and added to the plate in duplicate. […] After 3× washes with PBST, the plates were developed with 50 µl TMB substrate (Sigma) for 5 min at room temperature before stopping the reaction with 25 µl 0.5M H2SO4 and reading absorbance at 450 nm in a microtiter plate reader (BioTek EL808). Dose response curves were analysed and EC50 values and other statistical parameters determined using a 4-parameter logistical fit of the data (GraphPad Prism).

B1: DH2 murine monoclonal antibody (antibody, V domains shown)
VH: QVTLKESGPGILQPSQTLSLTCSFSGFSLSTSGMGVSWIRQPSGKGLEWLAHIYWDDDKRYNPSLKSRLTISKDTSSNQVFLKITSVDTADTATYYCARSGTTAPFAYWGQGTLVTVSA
VL: QIVLTQSPAIMSASPGEKVTMTCSASSSVSYMYWYQQKPGSSPRLLIYDTSNLASGVPVRFSGSGSGTSYSLTISRMEAEDAATFYCQQWSSSPLTFGAGTKLELK
notes: Mouse hybridoma IgG; heavy chain amplified with primer MHCG2B, kappa light chain; also called mDH001
Rat TG2
  IC50, 3H-putrescine incorporation assay: 0.000223 mg/ml of IgG (to inhibit 1 ng of TG2)
  IC50 ratio, 3H-putrescine incorporation assay (DH2 on rat TG2 against AB-1 on human TG2): 38 fold less active than AB-1 against human TG2
  IC50 ratio, 3H-putrescine incorporation assay (rat TG2 against human TG2, same antibody): ~6 fold less active than against human TG2

B2: cDH001 chimeric antibody (murine DH2 variable regions) (antibody, human IgG1, V domains shown)
VH: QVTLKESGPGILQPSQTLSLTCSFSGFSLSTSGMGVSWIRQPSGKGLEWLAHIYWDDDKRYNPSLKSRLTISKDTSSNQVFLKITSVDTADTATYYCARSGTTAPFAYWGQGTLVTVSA
VL: QIVLTQSPAIMSASPGEKVTMTCSASSSVSYMYWYQQKPGSSPRLLIYDTSNLASGVPVRFSGSGSGTSYSLTISRMEAEDAATFYCQQWSSSPLTFGAGTKLELK
[1]
  IC50 of enzymatic inhibition, dansylated lysine incorporation into N,N-dimethylated casein [continued), panel E]: 829 nM

B3: cDD9001 chimeric antibody (murine DD9 variable regions) (antibody, human IgG1, V domains shown)
VH: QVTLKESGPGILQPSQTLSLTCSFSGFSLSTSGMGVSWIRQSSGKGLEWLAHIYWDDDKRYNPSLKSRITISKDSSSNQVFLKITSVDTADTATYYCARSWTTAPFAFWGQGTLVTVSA
VL: QIVLTQSPAIMSASPGEKVTMTCSASSSVDYMYWYQQKPGSSPRLLIYDTSNLASGVPVRFSGSGSGTSYSLTISRMGAEDAATYYCQQWNSSPLTFGAGTKLELK
Cynomolgus monkey TG2
  EC50: 0.328 nM
